Data taken from article PMC11530598.

What was measured:
[1] = target: actin (filaments) (UniProt P68135); test: TIRF intensity of HC on actin filaments; conditions: reference: HC1-1500 + DYRK1a without ATP
[2] = target: tubulin (taxol-stabilized microtubules); test: TIRF intensity of HC on microtubules; conditions: reference: HC1-1500 + DYRK1a without ATP
[3] = target: taxol-stabilized microtubules (porcine brain tubulin) (porcine); test: TIRF microscopy binding assay (fluorescence intensity on filaments); fluorescent MAP1B constructs in solution on taxol-stabilized microtubules held on the coverslip; titrations for KD (KD of the LC called apparent); 10 nM on WT and subtilisin-digested microtubules in the same chamber; 90 mM Hepes pH 7.4, 150 mM K-acetate, 2 mM Mg-acetate, 1 mM EGTA, 10% glycerol, 10 uM taxol
[4] = target: subtilisin-digested microtubules (porcine brain tubulin without the C-terminal tails) (porcine); test: as above
[5] = target: taxol-stabilized microtubules (porcine brain tubulin) (porcine)
[6] = target: taxol-stabilized microtubules (porcine brain tubulin) (porcine); test: TIRF microscopy binding assay (fluorescence intensity on filaments); 50 nM bacterially expressed HC^1-1500 on microtubules after incubation with DYRK1a with or without ATP (37 C, 30 min)
[7] = target: actin filaments (rabbit skeletal muscle actin) (rabbit) (UniProt P68135); test: TIRF microscopy binding assay (fluorescence intensity on filaments); 50 nM bacterially expressed HC^1-1500 on actin filaments after incubation with DYRK1a with or without ATP (37 C, 30 min)

For “MAP1B (heavy chain HC, light chain LC/LC1) HC 1-1500 (from UniProt P14873) HC1-1500 + DYRK1a with ATP”, the other: percent reduction [1] was 75% and the other: percent reduction [2] was 21%.
With “MAP1B HC MTBD^639-767 (from UniProt P14873 639-767) (domain or fragment)” the Kd [3] was 13.6 nM.
“MAP1B HC^1-2202-sfGFP (full-length MAP1B heavy chain) (from UniProt P14873 1-2202) (domain or fragment)” showed a Kd [3] of 3.8 nM.
In the case of “MAP1B LC 2203-2464-sfGFP (from UniProt P14873 2203-2464) (domain or fragment)”, the percent decrease of fluorescence intensity against WT microtubules [4] is reported as 87% and the Kd [3] is reported as 1.5 nM.
“TMR-spastin (truncated human spastin, delta227) (from UniProt Q9UBP0 1-616) (enzyme)” was tested, and the reduction of microtubule fluorescence intensity after 10 min with spastin (severing) in the presence of 10 nM LC-sfGFP; 82% with spastin alone [5] was 19% and the reduction of microtubule fluorescence intensity after 10 min with spastin (severing) in the presence of 50 nM sfGFP-HC^1-1500; 82% with spastin alone [5] was 60%.
“sfGFP-MAP1B HC^1-532 (from UniProt P14873 1-532) (domain or fragment)” gave a Kd [3] of 185 nM.
Substance “sfGFP-MAP1B HC^1-1103 (from UniProt P14873 1-1103) (domain or fragment)” has a Kd [3] of 1.1 nM.
For “sfGFP-MAP1B HC^1-1500, bacterially expressed (from UniProt P14873 1-1500) (domain or fragment)”, the percent decrease of fluorescence intensity against WT microtubules [4] was 45% and the Kd [3] was 1.8 nM.
With “sfGFP-MAP1B HC^1-1500, bacterially expressed, phosphorylated by DYRK1a (from UniProt P14873 1-1500) (domain or fragment)” the percent reduction of fluorescence intensity on microtubules against the sample without ATP [6] was 21% and the percent reduction of fluorescence intensity on actin filaments against the sample without ATP [7] was 75%.
